The values that follow come from patent US8673594B2, “Methods for stimulating nervous system regeneration and repair by regulating arginase I and polyamine synthesis” (Research Foundation of City University of New York, priority 2000, dated 2014).

For test [1], the system named is Arg I RNA in cerebellar neurons. Nature of the test: Arginase I RNA level in cerebellar neurons by RT-PCR and quantitative PCR. In kind it is cell-based. To be noted: overnight dbcAMP 1 mM or BDNF 200 ng/ml; P<0.005. The procedure:
FIG. 4: Priming Neurons With Brain Derived Neurotrophic Factor (BDNF) or Dibutyryl (db) cAMP Up-Regulates Arginase I RNA Levels In Cerebellar Neurons. RNA isolated from cerebellar neurons without treatment (lane 2), from cerebellar neurons exposed overnight to either BDNF (200 ng/ml) (lane 3) or dbcAMP (1 mM) (lane 4), was reverse, transcribed and subjected to (A) semi-quantitative PCR; or (B) quantitative PM; using primers specific for arginase I. As a positive control, RNA isolated from liver tissue was subjected to RT PCR and quantitative PCR procedures using the same primers ((A), lane 1; (B), “Liver”)
To determine whether elevated cAMP levels causes an up-regulation of arginase expression, cerebellar neurons were primed with neurotrophins (BDNF) or dbcAMP (Example 1), and RNA and protein was extracted from primed neurons (Example 2). The extracted RNA was used as a template for reverse transcription and PCR amplification using primers specific for the gene encoding the enzyme arginase I (“Arg I”), an isoform of arginase abundant in liver tissue but barely detectable in other tissues.
Cerebellar neurons were primed with neurotrophins (BDNF, GDNF) or dbcAMP according to the procedures in Example 1. […]
Finally, ArgI amplified cDNA samples were detected by electrophoretic separation on a 1% agarose gel and staining with ethidium bromide.

For test [2], the system named is ArgI protein in cerebellar neurons. Nature of the test: Arginase I protein level in cerebellar neurons by SDS-PAGE and Western blot. The format is cell-based. The settings on record: for increase in amount of ArgI protein: after 1 hour of exposure; for increase in amount of ArgI protein / time of peak of ArgI protein increase post-treatment / time for which ArgI protein increase was sustained: dbcAMP 1 mM or BDNF 200 ng/ml; for time for which ArgI protein increase was sustained: declining by 24 hours. As for the experimental part: Cerebellar neurons were untreated (−) or exposed to either (A) 200 ng/ml BDNF or (B) 1 mM dbcAMP for 1 hour (h), 3 h, 21 h or 24 h; or (C) 200 ng/ml GDNF (+) for 1 h, 3 h or 5 h and the cells lysed in the presence of protease inhibitors. Total protein (23 μg) was subjected to SDS-polyacrylamide gel (12%) electrophoresis (SDS-PAGE), transferred to nitrocellulose membrane and immunostained with antibody to Arg I. The arrows indicate the position of ArgI polypeptide.
We next assessed the expression of ArgI in cerebellar neurons at the protein level. After exposure of cerebellar neurons to either dbcAMP or BDNF for various times, neurons were lysed, proteins were extracted and the extracted proteins were separated by SDS PAGE before being transferred to membrane and immunostained with a polyclonal antibody against arginase I (see Example 2).
Cerebellar neurons were untreated (−) or exposed to 200 ng/ml GDNF for 1 h, 3 h or 5 h and the cells lysed in the presence of protease inhibitors. Total protein (23 μg) was subjected to SDS-polyacrylamide gel (12%) electrophoresis (SDS-PAGE), transferred to nitrocellulose membrane and immunostained with antibody to Arg I. As shown in FIG. 5(C), the amount of ArgI polypeptide increased at least two-fold after treatment of neurons with GDNF.
Neurons were lysed, proteins were extracted and the extracted proteins (23 μg of total protein per lane) separated by SDS-polyacrylamide gel (12%) electrophoresis (SDS-PAGE) according to well-known procedures (see Ausubel et al., supra). Separated proteins were transferred to nitrocellulose membrane and immunostained with antibody to Arg I. The results are shown in FIG. 5, where the arrows indicate the position of ArgI polypeptide. Polyclonal antibodies were generated against the recombinant arginase of Cavalli at al., Biochemistry, 33, pp. 10652-657 (1994), which described the recombinant expression and purification of rat liver arginase I in E. coli. Polyclonal antibodies were generated essentially according to the procedures of Hanly et al., ILAR Journal, 37, pp. 141-152 (1995), incorporated herein by reference.
For the measurement of arginase I protein levels by immunoblot, cells were harvested and washed with ice cold PBS and then resuspended (100 μl/10^7 cells) in ice cold extraction buffer containing 50 mM Tris-HCl, pH 7.4, 150 mM NaCl, 2 mM EDTA, Triton-X 100, 1 mM phenylmethylsulfonyl fluoride (PMSF), 10 micrograms/ml leupeptin, 1 micromolar pepstatin, 1 mM N-ethylmaleimide (NEM), 2 mM Na3VO4, 20 mM sodium pyrophosphate, and 50 mM NaP). Lysates were centrifuged at 15,000 RPM at 4 degrees centigrade for 30 minutes. The clear cytosol was separated from the insoluble pellet fraction and immediately used for immunoblot. The supernatants were removed carefully and the protein concentration was quantified by the Bradford method. Lysates were mixed with boiling Laemmli's buffer (1× is 100 mM Tris-HCl, pH 6.8, 4% SDS, 200 mM dithiothreitol, 20% glycerol, 2% SDS, 0.2% bromophenol blue, 10 micrograms/ml aprotinin, 10 micrograms/ml leupeptin). The samples were boiled for 10 minutes at 100° C. and centrifuged at 15,000 rpm for 10 seconds. Approximately 30 micrograms of protein was electrophoresed under reducing conditions on 10% SDS-polyacrylamide gels and transferred to nitrocellulose membrane. Membranes were blocked in 5% skim milk in TBST (Tris, pH 7.4; 150 mM NaCl; 0.05% Tween 20) for 30 minutes at room temperature. Blots were probed with primary antibodies overnight at 4° C., followed by incubation with anti-rabbit or anti-mouse IgG conjugated with horseradish peroxidase (Bio-Rad, Hercules, Calif.) for 1 hour. Signals were detected using the ECL system (Amersham Corp, Arlington, Heights, Ill.).
In general terms: A western blot detects proteins with antibodies after separation by electrophoresis.

In the case of `CCCC(=O)Nc1ncnc2c1ncn2[C@@H]1O[C@@H]2COP(=O)(O)O[C@H]2[C@H]1OC(=O)CCC` [dbcAMP, dibutyryl cAMP], in test [1], the “increase in amount of Arg I RNA by quantitative PCR” value is on record as “about 50%”. In addition, in test [2], the “increase in amount of ArgI protein” value is “at least two-fold”, the “time of peak of ArgI protein increase post-treatment” value is listed as “around 3 hours” and the “time for which ArgI protein increase was sustained” value is 21 h.

B1: GDNF: glial cell line-derived neurotrophic factor (protein, UniProt P39905 78-211, looked up)
Glial cell line-derived …: SPDKQMAVLPRRERNRQAAAANPENSRGKGRRGQRGKNRGCVLTAIHLNVTDLGLGYETKEELIFRYCSGSCDAAETTYDKILKNLSRNRRLVSDKVGQACCRPIAFDDDLSFLDDNLVYHILRKHSAKRCGCI
Consider B1, for which, in test [2] (200 ng/ml GDNF for 1 h, 3 h or 5 h), the “increase in amount of ArgI polypeptide” value is “at least two-fold”.

B2: BDNF: Brain-derived neurotrophic factor, Trk-family neurotrophin (protein, UniProt P23560 19-247, looked up)
Neurotrophic factor BDNF …: APMKEANIRGQGGLAYPGVRTHGTLESVNGPKAGSRGLTSLADTFEHVIEELLDEDQKVRPNEENNKDADLYTSRVMLSSQVPLEPPLLFLLEEYKNYLDAANMSMRVRRHSDPARRGELSVCDSISEWVTAADKKTAVDMSGGTVTVLEKVPVSKGQLKQYFYETKCNPMGYTKEGCRGIDKRHWNSQCRTTQSYVRALTMDSKKRIGWRFIRIDTSCVCTLTIKRGR
B2: in test [1], the “increase in amount of Arg I RNA by quantitative PCR” value was “about 50%”. In test [2], the “increase in amount of ArgI protein” value is “at least two-fold”, the “time of peak of ArgI protein increase post-treatment” value was “around 3 hours” and the “time for which ArgI protein increase was sustained” value was 21 h.
